Among the data in article doi:10.1101/2024.11.25.625210 are stoichiometry N values, retold here.

The assay concerns the target Tom1 (S. cerevisiae HECT ubiquitin ligase), full-length, wild type (S. cerevisiae) (UniProt Q03280). Description: cryo-EM structure.

One may read the stoichiometry N as a count of units in the complex or per binding partner.

Sequence of UniProt Q03280 (Q03280 whole entry): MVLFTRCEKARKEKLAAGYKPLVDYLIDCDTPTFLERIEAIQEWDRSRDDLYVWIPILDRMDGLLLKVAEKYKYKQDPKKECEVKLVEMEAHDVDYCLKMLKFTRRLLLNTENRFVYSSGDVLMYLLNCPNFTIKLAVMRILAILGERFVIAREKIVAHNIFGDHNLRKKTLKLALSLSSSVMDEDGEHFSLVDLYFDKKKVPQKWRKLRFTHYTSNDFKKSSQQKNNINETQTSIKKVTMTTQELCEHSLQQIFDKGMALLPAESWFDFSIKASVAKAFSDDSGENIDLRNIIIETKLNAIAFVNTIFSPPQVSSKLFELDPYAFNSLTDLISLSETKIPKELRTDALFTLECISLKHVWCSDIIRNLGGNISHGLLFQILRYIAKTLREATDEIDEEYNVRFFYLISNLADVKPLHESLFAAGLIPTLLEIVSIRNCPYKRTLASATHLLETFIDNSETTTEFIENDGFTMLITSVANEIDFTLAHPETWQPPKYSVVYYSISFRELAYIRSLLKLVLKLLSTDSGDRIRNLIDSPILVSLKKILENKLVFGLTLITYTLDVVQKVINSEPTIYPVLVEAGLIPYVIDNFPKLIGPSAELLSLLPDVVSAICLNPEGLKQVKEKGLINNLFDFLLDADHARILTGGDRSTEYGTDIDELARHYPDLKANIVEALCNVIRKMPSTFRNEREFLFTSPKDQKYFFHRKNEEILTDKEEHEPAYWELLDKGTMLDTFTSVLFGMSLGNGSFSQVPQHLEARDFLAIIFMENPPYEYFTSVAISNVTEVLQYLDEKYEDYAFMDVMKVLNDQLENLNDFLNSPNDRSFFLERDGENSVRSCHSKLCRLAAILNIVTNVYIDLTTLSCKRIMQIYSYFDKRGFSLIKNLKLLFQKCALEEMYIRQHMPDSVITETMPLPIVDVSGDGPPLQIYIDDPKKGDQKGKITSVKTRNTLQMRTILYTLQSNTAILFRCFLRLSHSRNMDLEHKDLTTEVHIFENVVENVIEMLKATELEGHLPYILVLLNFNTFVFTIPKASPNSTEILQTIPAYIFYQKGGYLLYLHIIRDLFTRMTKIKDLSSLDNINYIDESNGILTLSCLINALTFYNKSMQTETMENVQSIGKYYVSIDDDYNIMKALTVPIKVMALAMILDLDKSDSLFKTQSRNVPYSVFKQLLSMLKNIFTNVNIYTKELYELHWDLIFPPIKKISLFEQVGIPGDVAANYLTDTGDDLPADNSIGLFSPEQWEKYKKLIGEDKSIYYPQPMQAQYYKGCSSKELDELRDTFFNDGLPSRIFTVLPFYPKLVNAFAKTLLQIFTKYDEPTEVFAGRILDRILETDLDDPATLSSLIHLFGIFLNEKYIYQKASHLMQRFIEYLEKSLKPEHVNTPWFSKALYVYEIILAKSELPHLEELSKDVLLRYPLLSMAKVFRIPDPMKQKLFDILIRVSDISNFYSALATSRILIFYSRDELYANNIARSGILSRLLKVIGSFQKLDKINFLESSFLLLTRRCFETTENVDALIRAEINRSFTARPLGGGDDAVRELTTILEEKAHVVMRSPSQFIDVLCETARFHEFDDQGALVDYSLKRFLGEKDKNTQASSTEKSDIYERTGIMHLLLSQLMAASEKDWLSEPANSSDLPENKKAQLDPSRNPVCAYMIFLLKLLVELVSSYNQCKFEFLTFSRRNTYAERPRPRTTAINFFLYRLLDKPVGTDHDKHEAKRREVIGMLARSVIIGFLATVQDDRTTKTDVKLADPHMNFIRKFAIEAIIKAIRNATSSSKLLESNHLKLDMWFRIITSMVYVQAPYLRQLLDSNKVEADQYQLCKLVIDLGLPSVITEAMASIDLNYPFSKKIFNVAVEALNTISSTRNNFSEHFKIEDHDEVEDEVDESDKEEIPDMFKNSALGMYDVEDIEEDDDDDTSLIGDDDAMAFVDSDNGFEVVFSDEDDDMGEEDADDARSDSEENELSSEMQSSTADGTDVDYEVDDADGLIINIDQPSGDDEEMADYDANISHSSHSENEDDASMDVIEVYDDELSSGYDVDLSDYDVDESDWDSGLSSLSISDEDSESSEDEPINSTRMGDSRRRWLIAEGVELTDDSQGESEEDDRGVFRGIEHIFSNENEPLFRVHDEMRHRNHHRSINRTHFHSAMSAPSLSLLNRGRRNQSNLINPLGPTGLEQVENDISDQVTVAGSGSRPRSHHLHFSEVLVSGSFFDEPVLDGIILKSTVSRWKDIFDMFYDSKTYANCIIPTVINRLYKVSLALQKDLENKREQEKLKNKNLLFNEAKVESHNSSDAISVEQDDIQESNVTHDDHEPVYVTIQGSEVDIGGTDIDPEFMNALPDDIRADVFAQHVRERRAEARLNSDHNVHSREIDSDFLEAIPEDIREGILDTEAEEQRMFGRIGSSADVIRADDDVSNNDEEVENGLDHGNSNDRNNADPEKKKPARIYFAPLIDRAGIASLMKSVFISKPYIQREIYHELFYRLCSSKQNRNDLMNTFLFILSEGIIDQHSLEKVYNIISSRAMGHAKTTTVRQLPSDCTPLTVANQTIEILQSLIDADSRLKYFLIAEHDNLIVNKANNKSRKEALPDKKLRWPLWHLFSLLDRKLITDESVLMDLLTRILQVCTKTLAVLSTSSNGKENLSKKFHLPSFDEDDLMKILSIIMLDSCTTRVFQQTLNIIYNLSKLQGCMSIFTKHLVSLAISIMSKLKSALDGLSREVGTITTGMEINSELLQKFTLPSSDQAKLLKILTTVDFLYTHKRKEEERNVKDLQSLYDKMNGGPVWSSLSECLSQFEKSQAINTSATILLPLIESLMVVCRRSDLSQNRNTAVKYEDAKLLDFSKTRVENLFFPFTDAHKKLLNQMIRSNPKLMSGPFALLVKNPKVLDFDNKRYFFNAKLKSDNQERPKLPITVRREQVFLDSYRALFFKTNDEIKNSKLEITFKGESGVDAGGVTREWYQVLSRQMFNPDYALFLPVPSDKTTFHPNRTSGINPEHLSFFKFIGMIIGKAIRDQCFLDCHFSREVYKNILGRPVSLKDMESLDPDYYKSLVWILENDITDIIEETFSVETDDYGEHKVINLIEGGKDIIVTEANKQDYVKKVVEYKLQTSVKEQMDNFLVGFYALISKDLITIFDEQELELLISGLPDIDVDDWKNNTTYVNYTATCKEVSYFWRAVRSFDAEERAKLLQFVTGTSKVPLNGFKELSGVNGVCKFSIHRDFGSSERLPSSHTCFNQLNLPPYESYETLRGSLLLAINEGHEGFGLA

Substance “ubiquitin (from UniProt P0CG48 1-76) (natural protein)” displayed a stoichiometry N of 4.
